{"source": "paper PMC5572738", "target": "T1, bacteriorhodopsin (BR) from Halobacterium salinarum (Halobacterium salinarum), P02945", "T1 chain": "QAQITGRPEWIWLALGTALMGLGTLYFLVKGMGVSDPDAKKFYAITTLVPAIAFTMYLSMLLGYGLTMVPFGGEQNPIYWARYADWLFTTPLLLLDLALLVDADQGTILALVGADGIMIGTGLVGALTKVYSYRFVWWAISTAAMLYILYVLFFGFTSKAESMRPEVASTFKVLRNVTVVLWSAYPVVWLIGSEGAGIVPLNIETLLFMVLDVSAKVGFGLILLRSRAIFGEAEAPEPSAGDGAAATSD", "assay": "SEC; Sephadex 200 column, BR solubilised in DDM; elution position compared with Blue Dextran, alcohol dehydrogenase (150 kDa) and bovine serum albumin (66 kDa)", "settings": "remark: other sources report otherwise"}
{"binder": "bacteriorhodopsin (BR) from Halobacterium salinarum, P02945 14-262 (natural protein, here or on the partner: retinal chromophore attached in a Schiff base linkage to a lysine residue in the seventh helix; retinal chromophore attached in a Schiff base linkage to a lysine residue in the seventh helix) QAQITGRPEWIWLALGTALMGLGTLYFLVKGMGVSDPDAKKFYAITTLVPAIAFTMYLSMLLGYGLTMVPFGGEQNPIYWARYADWLFTTPLLLLDLALLVDADQGTILALVGADGIMIGTGLVGALTKVYSYRFVWWAISTAAMLYILYVLFFGFTSKAESMRPEVASTFKVLRNVTVVLWSAYPVVWLIGSEGAGIVPLNIETLLFMVLDVSAKVGFGLILLRSRAIFGEAEAPEPSAGDGAAATSD", "values": [{"measurement": "stoichiometry N", "result": 3}]}
